Experimental data taken from patent publication US20040180417A1, “Secretase/sheddase with asp-ase activity on the beta-site app-cleaving enzyme (bace, asp2, memepsin2)” (priority 2000, published 2004).

Experiments:
[proBACES]FG/V5 = In vitro PC-mediated processing of proBACES (Western blot); format: biochemical, mouse; conditions: equivalent hydrolytic activities of PCs, 1-4 hours incubation
[1] = test system: proBACE processing by PC-like enzyme; test: proBACE processing in HK293 cells co-expressing [BACEF]FG/V5 and PC-inhibitors (pulse-chase, immunoprecipitation, SDS-PAGE); format: cell-based, human; conditions: co-expression; 20 min [35S]Met pulse, 90 min chase; FG immunoprecipitation
Protocol: FIG. 1: HK293 cells were transiently co-transfected with either ([BACEF]FG/V5+BDNF) [control, CTL] (A,C) or ([BACEF]FG/V5+α1-PDX) (B,D) cDNAs. Two days post-transfections the cells were pulse-labeled in the absence or presence of […] BFA for 15 min with [^35S]Met and then chased for 1 or 2h. Cell lysates were immunoprecipitated with either the FG or V5 mAbs and analysed by SDS-PAGE on 8% tricine gels. The migration position of the 53 kDa molecular mass standard and those of proBACE (pBACE) and BACE are emphasized.
FIG. 2: [A] HK293 cells were transiently co-transfected with cDNAs coding for either ([BACEF]FG/V5+BDNF) [control, CTL], ([BACEF-R45A]FG/V5+BDNF) or ([BACEF-R42A]FG/V5+BDNF) or ([BACEF]FG/V5+either α1-PDX, the prosegments of furin, PC5, PC7, SKI-1, furin-mutated (α2M-F) or wild type (α2M) α2-macroglobulin. The cells were pulse-labeled for 20 min with [^35S]Met and then chased for 90 min. Cell lysates were immunoprecipitated with the FG mAb and analysed by SDS-PAGE on 8% tricine gels. [B] HK293 cells were transiently co-transfected with cDNAs coding for either ([BACEF]FG/V5+BDNF) [CTL], ([BACEF]FG/V5+furin) or ([BACEF]FG/V5+α1-PDX). The cells were then pulse-labeled for 2h with Na2[^35SO4]. Cell lysates were immunoprecipitated with the FG or V5 mAbs and analysed by SDS-PAGE on 8% tricine gels. […]

B1: PC7 (protein)
chain: SIHFNDPKYPQQWHLNNRRSPGRDINVTGVWERNVTGRGVTVVVVDDGVEHTVQDIAPNYSPEGSYDLNSNDPDPMPHPDEENGNHHGTRCAGEIAAVPNNSFCAVGVAYGSRIAGIRVLDGPLTDSMEAVAFNKHYQINDIYSCSWGPDDDGKTVDGPHQLGKAALQHGVMAGRQGFGSIFVVASGNGGQHNDNCNYDGYANSIYTVTIGAVDEEGRMPFYAEECASMLAVTFSGGDKMLRSIVTTDWDLQKGTGCTEGHTGTSAAAPLAAGMIALMLQVRPCLTWRDVQHIIVFTATQYEDHRADWLTNEAGFSHSHQHGFGLLNAWRLVNAAKIWTSVPYLASYVSPMLKENKAVPRSPHSLEVLWNVSRTDLEMSGLKTLEHVAVTVSITHPRRGSLELKLFCPSGMMSLIGAPRSMDSDPNGFNDWTFSTVRCWGERARGVYRLVIRDVGDEPLQVGILQQWQLTLYGSTWSPVDIKDRQSLLESAMSGKYLHDDFTLPCPPGLKIPEEDGYSITPNTLKT
For B1, the “ability to process proBACE into BACE” value ([proBACES]FG/V5) was “barely, if at all, able”.

B2: α2M: wild type α2-macroglobulin (protein, UniProt P01023 24-1474, looked up)
Alpha-2-macroglobulin: SVSGKPQYMVLVPSLLHTETTEKGCVLLSYLNETVTVSASLESVRGNRSLFTDLEAENDVLHCVAFAVPKSSSNEEVMFLTVQVKGPTQEFKKRTTVMVKNEDSLVFVQTDKSIYKPGQTVKFRVVSMDENFHPLNELIPLVYIQDPKGNRIAQWQSFQLEGGLKQFSFPLSSEPFQGSYKVVVQKKSGGRTEHPFTVEEFVLPKFEVQVTVPKIITILEEEMNVSVCGLYTYGKPVPGHVTVSICRKYSDASDCHGEDSQAFCEKFSGQLNSHGCFYQQVKTKVFQLKRKEYEMKLHTEAQIQEEGTVVELTGRQSSEITRTITKLSFVKVDSHFRQGIPFFGQVRLVDGKGVPIPNKVIFIRGNEANYYSNATTDEHGLVQFSINTTNVMGTSLTVRVNYKDRSPCYGYQWVSEEHEEAHHTAYLVFSPSKSFVHLEPMSHELPCGHTQTVQAHYILNGGTLLGLKKLSFYYLIMAKGGIVRTGTHGLLVKQEDMKGHFSISIPVKSDIAPVARLLIYAVLPTGDVIGDSAKYDVENCLANKVDLSFSPSQSLPASHAHLRVTAAPQSVCALRAVDQSVLLMKPDAELSASSVYNLLPEKDLTGFPGPLNDQDNEDCINRHNVYINGITYTPVSSTNEKDMYSFLEDMGLKAFTNSKIRKPKMCPQLQQYEMHGPEGLRVGFYESDVMGRGHARLVHVEEPHTETVRKYFPETWIWDLVVVNSAGVAEVGVTVPDTITEWKAGAFCLSEDAGLGISSTASLRAFQPFFVELTMPYSVIRGEAFTLKATVLNYLPKCIRVSVQLEASPAFLAVPVEKEQAPHCICANGRQTVSWAVTPKSLGNVNFTVSAEALESQELCGTEVPSVPEHGRKDTVIKPLLVEPEGLEKETTFNSLLCPSGGEVSEELSLKLPPNVVEESARASVSVLGDILGSAMQNTQNLLQMPYGCGEQNMVLFAPNIYVLDYLNETQQLTPEIKSKAIGYLNTGYQRQLNYKHYDGSYSTFGERYGRNQGNTWLTAFVLKTFAQARAYIFIDEAHITQALIWLSQRQKDNGCFRSSGSLLNNAIKGGVEDEVTLSAYITIALLEIPLTVTHPVVRNALFCLESAWKTAQEGDHGSHVYTKALLAYAFALAGNQDKRKEVLKSLNEEAVKKDNSVHWERPQKPKAPVGHFYEPQAPSAEVEMTSYVLLAYLTAQPAPTSEDLTSATNIVKWITKQQNAQGGFSSTQDTVVALHALSKYGAATFTRTGKAAQVTIQSSGTFSSKFQVDNNNRLLLQQVSLPELPGEYSMKVTGEGCVYLQTSLKYNILPEKEEFPFALGVQTLPQTCDEPKAHTSFQISLSVSYTGSRSASNMAIVDVKMVSGFIPLKPTVKMLERSNHVSRTEVSSNHVLIYLDKVSNQTLSLFFTVLQDVPVRDLKPAIVKVYDYYETDEFAIAEYNAPCSKDLGNA
With B2 the “quantity of the 72 kDa proBACE (pBACEG, Golgi form)” value [1] was “barely detectable”.
